In PMC3630103 (2013):

B1: chimeric mouse-human CHK-152 N297Q (aglycosyl variant) (antibody, V domains shown)
VH: QVQLQQPGAALVKPGASAMMSCKASGYTFTSYWITWVKQRPGQGLEWIGDIYPGTGRTIYKEKFKTKATLTVDTSSSTAFMQLNSLTSEDSAVYYCARGYGSPYYALDYWGQGTSVTVSS
VL: DIVLTQSPASLAVSQGQRATISCKASQSVDYDGDSYVNWYQQKPGQSPKLLIYDASNLESGIPARFSGSGSGTDFTLNIHPVEEEDVATYYCQESNEDPRTFGGGTKLEIK
B2: chimeric mouse-human CHK-152 (antibody, V domains shown)
VH: QVQLQQPGAALVKPGASAMMSCKASGYTFTSYWITWVKQRPGQGLEWIGDIYPGTGRTIYKEKFKTKATLTVDTSSSTAFMQLNSLTSEDSAVYYCARGYGSPYYALDYWGQGTSVTVSS
VL: DIVLTQSPASLAVSQGQRATISCKASQSVDYDGDSYVNWYQQKPGQSPKLLIYDASNLESGIPARFSGSGSGTDFTLNIHPVEEEDVATYYCQESNEDPRTFGGGTKLEIK

Biological target: CHIKV pE2-E1 (E3-E2-E1) of the CHIKV-LR strain (Chikungunya virus (strain La Reunion …, UniProt Q8JUX5))
Experiment: SPR

Sequence of CHIKV pE2-E1 (E3-E2-E1) of the CHIKV-LR strain (Chikungunya virus (Q8JUX5 whole entry, looked up): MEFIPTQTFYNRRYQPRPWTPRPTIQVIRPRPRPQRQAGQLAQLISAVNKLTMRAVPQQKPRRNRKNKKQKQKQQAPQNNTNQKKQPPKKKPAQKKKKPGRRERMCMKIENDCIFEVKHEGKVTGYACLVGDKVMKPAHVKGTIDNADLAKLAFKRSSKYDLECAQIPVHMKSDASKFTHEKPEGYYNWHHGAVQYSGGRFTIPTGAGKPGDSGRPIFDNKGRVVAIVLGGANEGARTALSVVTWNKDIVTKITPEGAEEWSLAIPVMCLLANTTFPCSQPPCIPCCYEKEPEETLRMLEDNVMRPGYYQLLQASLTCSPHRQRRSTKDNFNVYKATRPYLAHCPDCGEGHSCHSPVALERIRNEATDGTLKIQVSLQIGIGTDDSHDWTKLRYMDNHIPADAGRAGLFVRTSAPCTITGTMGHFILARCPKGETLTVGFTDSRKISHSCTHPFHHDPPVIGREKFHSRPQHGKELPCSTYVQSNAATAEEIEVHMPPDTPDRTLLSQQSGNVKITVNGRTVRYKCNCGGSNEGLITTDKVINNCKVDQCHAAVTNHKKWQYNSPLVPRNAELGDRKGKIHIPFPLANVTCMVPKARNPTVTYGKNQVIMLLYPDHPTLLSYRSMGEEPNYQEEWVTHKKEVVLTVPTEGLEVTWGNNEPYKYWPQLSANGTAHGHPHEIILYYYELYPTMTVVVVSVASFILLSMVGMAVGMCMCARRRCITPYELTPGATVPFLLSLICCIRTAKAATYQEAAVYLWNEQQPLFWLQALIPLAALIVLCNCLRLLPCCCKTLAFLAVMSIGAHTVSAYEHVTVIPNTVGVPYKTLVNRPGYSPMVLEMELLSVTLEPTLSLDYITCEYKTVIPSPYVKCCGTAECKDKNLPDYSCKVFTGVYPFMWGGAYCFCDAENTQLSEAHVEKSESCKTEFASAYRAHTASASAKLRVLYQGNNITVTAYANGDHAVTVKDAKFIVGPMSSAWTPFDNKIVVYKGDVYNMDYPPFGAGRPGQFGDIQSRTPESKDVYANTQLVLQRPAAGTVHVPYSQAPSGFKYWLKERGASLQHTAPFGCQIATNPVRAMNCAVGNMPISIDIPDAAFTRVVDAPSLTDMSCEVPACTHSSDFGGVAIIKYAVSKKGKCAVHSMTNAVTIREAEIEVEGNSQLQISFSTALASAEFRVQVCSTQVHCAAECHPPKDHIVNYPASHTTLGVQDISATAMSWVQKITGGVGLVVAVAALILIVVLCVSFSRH

| Binder | Kd | koff |
| --- | --- | --- |
| B1 | 3.9 nM | 0.00051 s⁻¹ |
| B2 | 3.1 nM | 0.0004 s⁻¹ |
